The term EC50 denotes the midpoint of the concentration-response curve. Lower therefore signals higher potency in that assay.

Experiment [1] addresses PD-L1 on PD-L1 aAPC/CHO-K1 cells (Promega PD-1/PD-L1 Blockade Bioassay) (UniProt Q9NZQ7 19-290, limits assumed). Description: cell-based or functional assay.
The target in the next experiment is T1, PDL1-ECD-His蛋白 (human, UniProt Q9NZQ7 19-238).
T1 construct: extracellular domain; Made in house in HEK-293E cells; also called PD-L1抗原
As to the kind of experiment: ELISA, PDL1-ECD-His coated, HRP mouse anti-human Fab. (In general: In an ELISA, binding on a coated surface is turned into a signal by an enzyme label.)

The target in the next experiment is T2, PD-L1 on N87-PDL1 cells (UniProt Q9NZQ7 19-290, limits assumed).
T2 construct: whole, on cells; also called N87-PDL1细胞
T2 sequence (Q9NZQ7 19-290 limits assumed): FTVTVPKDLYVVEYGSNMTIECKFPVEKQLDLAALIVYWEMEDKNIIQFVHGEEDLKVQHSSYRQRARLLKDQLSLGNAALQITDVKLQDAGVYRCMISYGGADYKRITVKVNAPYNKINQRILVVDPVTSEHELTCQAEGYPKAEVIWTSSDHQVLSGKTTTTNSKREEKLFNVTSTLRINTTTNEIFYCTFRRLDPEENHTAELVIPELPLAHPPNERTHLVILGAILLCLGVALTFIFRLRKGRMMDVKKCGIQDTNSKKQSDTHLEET
Description: flow cytometry on N87-PDL1 cells, goat anti-human IgG-FITC. A general note: In flow cytometry, cells or beads pass a laser one at a time.

Experiment [2] deals with PD-1 on PD1 effector cells (Promega PD-1/PD-L1 Blockade Bioassay) (UniProt Q15116 25-288, limits assumed). Description: cell-based or functional assay.
Chain of PD-1 on PD1 effector cells (Promega PD-1/PD-L1 Blockade Bioassay) (Q15116 25-288 limits assumed): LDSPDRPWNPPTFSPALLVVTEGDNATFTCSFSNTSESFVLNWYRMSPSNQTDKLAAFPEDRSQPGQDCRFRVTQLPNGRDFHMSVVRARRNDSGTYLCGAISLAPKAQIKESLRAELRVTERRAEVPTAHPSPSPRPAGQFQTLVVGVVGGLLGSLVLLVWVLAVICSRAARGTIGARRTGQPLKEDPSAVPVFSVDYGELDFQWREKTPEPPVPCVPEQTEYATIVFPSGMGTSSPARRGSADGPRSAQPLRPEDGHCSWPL
For experiment [3], the target named is T3, PD1-ECD-hFc蛋白 (human, UniProt Q15116 25-170).
T3 construct: extracellular domain; Made in house in HEK-293E cells; also called PD-1抗原; not shown: hFc at the C-terminus
T3 sequence (Q15116 25-170): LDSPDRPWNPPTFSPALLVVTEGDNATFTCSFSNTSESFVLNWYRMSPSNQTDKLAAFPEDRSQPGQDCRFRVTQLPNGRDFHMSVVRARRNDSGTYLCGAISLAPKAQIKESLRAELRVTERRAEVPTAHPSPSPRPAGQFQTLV
Description: ELISA, PD1-ECD-hFc coated, HRP mouse anti-human Fab.

Experiment [4] concerns the target T4, PD-1 on CHO stable cells (PD-1/CHO) (UniProt Q15116 25-288, limits assumed).
T4 construct: whole, on cells; also called 细胞表面表达PD-1的CHO稳转细胞; PD-1/CHO细胞
As to the kind of experiment: flow cytometry on CHO cells stably expressing PD-1, goat anti-human IgG-FITC.

For experiment [5], the target named is T3, PD1-ECD-hFc蛋白. Description: bridging ELISA: PD1-ECD-hFc coated, antibody titrated, then PDL1-ECD-His at 1000ng/ml, read with HRP-anti-His (both antigens bound at once).

T1 sequence (Q9NZQ7 other isoform, or with tags, fused parts or gaps): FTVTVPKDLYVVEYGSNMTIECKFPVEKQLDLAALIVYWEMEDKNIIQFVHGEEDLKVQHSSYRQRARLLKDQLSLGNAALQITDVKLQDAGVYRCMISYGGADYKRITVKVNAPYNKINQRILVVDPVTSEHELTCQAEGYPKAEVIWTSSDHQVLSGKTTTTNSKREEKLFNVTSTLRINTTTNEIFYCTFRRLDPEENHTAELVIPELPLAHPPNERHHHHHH
Chain of PD-L1 on PD-L1 aAPC/CHO-K1 cells (Promega PD-1/PD-L1 Blockade Bioassay) (Q9NZQ7 19-290 limits assumed): as the sequence (Q9NZQ7 19-290 limits assumed) above
T4 sequence (Q15116 25-288 limits assumed): as the sequence (Q15116 25-288 limits assumed) above

B1: 抗PD-L1单抗 (M8) (antibody, human IgG1, kappa, V domains shown)
VH: QVQLQQSGGGLVKPSQSLSLTCTVSGFSLTSYGVHWVRQPPGKGLEWIGLIWSGGGTDYNPSLKSRLTISRDTSKNQVSFKISSLTAADTAVYYCARQLGLRAMDYWGQGTSVTVSS
VL: EIVLTQSPDFLSVTPKEKVTITCRASQSIGTTIHWYQQKPDQSPKLLIKYASQSFSGVPSRFSGSGSGTDFTLTINSVEAEDAATYYCQQSNSWPLTFGAGTKLEIKR
notes: also called 抗人PD-L1单抗M8; anti-PD-L1 mAb
Turning to B1, the “IC50, luminescence (PD-1/PD-L1 Blockade Bioassay)” value in experiment [1] is 0.42 nM. Besides, the EC50 was 0.27 nM in the experiment with PDL1-ECD-His蛋白 and 0.11 nM with PD-L1 on N87-PDL1 cells.

B2: anti-PD1×PDL1 BsAb (bispecific antibody, human IgG1, kappa)
heavy: not shown
light: EIVLTQSPDFLSVTPKEKVTITCRASQSIGTTIHWYQQKPDQSPKLLIKYASQSFSGVPSRFSGSGSGTDFTLTINSVEAEDAATYYCQQSNSWPLTFGAGTKLEIKRTVAAPSVFIFPPSDEQLKSGTASVVCLLNNFYPREAKVQWKVDNALQSGNSQESVTEQDSKDSTYSLSSTLTLSKADYEKHKVYACEVTHQGLSSPVTKSFNRGEC
notes: also called 抗PD1×PDL1双抗; 抗PD1×PDL1双特异性抗体
On to B2, for which the “IC50, luminescence (PD-1/PD-L1 Blockade Bioassay)” value in experiment [2] and in experiment [1] was 0.24 nM each time. Further, the EC50 was 0.3 nM in the experiment with PD1-ECD-hFc蛋白 [3]; 0.29 nM with PDL1-ECD-His蛋白; 0.15 nM with PD-L1 on N87-PDL1 cells; 1.43 nM in experiment [4]; 0.36 nM in the experiment with PD1-ECD-hFc蛋白 [5].

Source of the values: patent publication CN113754773A (SUNSHINE GUOJIAN PHARMACEUTICAL SHANGHAI CO LTD, dated 2021).
